Measured values reported in paper PMC10004559, “Identification of residues involved in allosteric signal transmission from amino acid binding site of pyruvate kinase muscle isoform 2” (PLOS ONE, 2023).

System: C=C(OP(=O)(O)O)C(=O)O
Assay: purified protein, by the assay type
Conditions: ADP 0.8 mM, pH 7.5

Sequence of PKM2 N70D (Homo sapiens; N70D) (chain, as listed by the source N70D N70D): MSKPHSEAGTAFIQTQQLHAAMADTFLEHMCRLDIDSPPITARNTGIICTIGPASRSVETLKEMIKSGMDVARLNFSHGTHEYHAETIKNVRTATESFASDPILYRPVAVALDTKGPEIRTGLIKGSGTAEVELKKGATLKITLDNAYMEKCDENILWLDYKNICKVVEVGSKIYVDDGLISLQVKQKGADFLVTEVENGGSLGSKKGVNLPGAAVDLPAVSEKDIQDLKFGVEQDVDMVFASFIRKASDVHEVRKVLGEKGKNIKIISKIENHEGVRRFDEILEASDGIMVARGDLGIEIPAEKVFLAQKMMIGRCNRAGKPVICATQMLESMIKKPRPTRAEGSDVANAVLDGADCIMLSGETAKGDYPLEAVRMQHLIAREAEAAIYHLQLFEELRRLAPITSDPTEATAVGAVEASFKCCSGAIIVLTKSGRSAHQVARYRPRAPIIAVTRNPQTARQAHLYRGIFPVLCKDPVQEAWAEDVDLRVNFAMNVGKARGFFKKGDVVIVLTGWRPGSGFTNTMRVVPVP
Sequence of PKM2 R106A (Homo sapiens; R106A) (chain, as listed by the source R106A R106A): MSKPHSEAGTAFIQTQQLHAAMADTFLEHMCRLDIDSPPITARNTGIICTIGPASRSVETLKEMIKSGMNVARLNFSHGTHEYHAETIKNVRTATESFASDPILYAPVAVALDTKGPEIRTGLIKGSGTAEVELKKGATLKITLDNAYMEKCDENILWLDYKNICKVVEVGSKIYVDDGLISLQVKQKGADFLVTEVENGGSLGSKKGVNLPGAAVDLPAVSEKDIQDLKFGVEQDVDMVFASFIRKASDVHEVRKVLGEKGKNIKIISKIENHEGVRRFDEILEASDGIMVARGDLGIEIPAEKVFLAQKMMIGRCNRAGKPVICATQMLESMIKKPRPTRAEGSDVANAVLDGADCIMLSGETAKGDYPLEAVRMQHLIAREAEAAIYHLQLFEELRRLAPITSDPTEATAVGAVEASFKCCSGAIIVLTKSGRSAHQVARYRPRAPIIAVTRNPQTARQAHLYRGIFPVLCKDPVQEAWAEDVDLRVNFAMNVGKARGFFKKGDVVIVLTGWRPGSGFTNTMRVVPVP
Sequence of PKM2 N75L (Homo sapiens; N75L) (chain, as listed by the source N75L N75L): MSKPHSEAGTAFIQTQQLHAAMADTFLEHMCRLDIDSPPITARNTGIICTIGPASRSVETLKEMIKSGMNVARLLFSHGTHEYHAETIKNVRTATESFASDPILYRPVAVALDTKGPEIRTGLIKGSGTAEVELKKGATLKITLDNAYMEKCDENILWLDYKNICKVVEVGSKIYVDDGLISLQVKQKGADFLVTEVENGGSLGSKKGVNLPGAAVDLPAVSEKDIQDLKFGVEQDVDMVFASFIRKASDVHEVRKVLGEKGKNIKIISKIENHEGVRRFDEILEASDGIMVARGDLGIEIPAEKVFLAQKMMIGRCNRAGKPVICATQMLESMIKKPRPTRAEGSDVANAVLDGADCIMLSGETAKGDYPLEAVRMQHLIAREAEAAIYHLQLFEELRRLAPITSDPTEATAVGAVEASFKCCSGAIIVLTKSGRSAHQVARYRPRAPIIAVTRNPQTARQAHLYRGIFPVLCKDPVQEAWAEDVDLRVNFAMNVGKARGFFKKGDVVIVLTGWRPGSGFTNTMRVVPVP

wtPKM2 (Homo sapiens)
Km (other: 10 nM wtPKM2, no AA): 700 µM

PKM2 N75L (Homo sapiens; N75L)
Km (other: 4200 nM PKM2 N75L, no AA): 80 µM

PKM2 R106A (Homo sapiens; R106A)
Km (other: 50 nM PKM2 R106A, no AA): 510 ± 40 µM | kcat/Km (other: 50 nM PKM2 R106A, no AA): 9.6±0.8 ×10^3 mM^-1 min^-1

PKM2 N70D (Homo sapiens; N70D)
Km (other: 65 nM PKM2 N70D, no AA): 780 ± 160 µM | kcat/Km (other: 65 nM PKM2 N70D, no AA): 5.9±1.3 ×10^3 mM^-1 min^-1
